Reference: publication PMC10269683, “comCDE (Competence) Operon Is Regulated by CcpA in Streptococcus pneumoniae D39”

What was measured:
CcpA [1] = molecular target: T1, CcpA (Streptococcus pneumoniae D39, UniProt A0A0H2ZQ65 1-336); test: EMSA; increasing CcpA; EMSA: 10 mM Tris-HCl pH 7.4, 1 mM DTT, 1 mM EDTA, 50 mM KCl, 5% glycerol, 50 ug/mL BSA, 0.05% NP-40, 20 min 37 C; footprinting binding 30 min 25 C; details: protein: recombinant; label: biotin; blunt
CcpA [2] = molecular target: T1, CcpA; test: EMSA; complex at 1 ug CcpA, 1 ng probe; unlabeled Np54 (100 ng) diminished complex; EMSA: 10 mM Tris-HCl pH 7.4, 1 mM DTT, 1 mM EDTA, 50 mM KCl, 5% glycerol, 50 ug/mL BSA, 0.05% NP-40, 20 min 37 C; footprinting binding 30 min 25 C; details: protein: recombinant; label: 5' biotin; blunt

B1: Mut cre2 (dsDNA)
DNA 1: ATATAATAGCAAAGCTGGGAATTTTCCCGGCTTTTTTCTTAAAAAAGTACACAACGATAGATATTAGGTAGAATGGAGA
DNA 2: TCTCCATTCTACCTAATATCTATCGTTGTGTACTTTTTTAAGAAAAAAGCCGGGAAAATTCCCAGCTTTGCTATTATAT
CcpA [1]
  binding result: binds

B2: Mut cre1 (dsDNA)
DNA 1: ATATAATAGATGCATGTCATGTGAATTCCACGTTGCATCTAATTAAGTACACTTTGGGAGAAAAAAATGACAGTTGAGA
DNA 2: TCTCAACTGTCATTTTTTTCTCCCAAAGTGTACTTAATTAGATGCAACGTGGAATTCACATGACATGCATCTATTATAT
CcpA [1]
  binding result: binds

B3: P54 (cre3+cre4) (dsDNA)
DNA 1: TAAGTTAGCTTACAAGAAAAAACATTTTAGGAGATTTTATTATGAAAAACACAG
DNA 2: CTGTGTTTTTCATAATAAAATCTCCTAAAATGTTTTTTCTTGTAAGCTAACTTA
CcpA [2]
  binding result: binds
